Test results as given in patent US20210292422A1 (SURROZEN, published 2021).

T1: LRP6E1E2 (UniProt O75581 20-630)
T1 construct: domain: E1E2; also called LRP6 E1E2 domains
T1 sequence (looked up): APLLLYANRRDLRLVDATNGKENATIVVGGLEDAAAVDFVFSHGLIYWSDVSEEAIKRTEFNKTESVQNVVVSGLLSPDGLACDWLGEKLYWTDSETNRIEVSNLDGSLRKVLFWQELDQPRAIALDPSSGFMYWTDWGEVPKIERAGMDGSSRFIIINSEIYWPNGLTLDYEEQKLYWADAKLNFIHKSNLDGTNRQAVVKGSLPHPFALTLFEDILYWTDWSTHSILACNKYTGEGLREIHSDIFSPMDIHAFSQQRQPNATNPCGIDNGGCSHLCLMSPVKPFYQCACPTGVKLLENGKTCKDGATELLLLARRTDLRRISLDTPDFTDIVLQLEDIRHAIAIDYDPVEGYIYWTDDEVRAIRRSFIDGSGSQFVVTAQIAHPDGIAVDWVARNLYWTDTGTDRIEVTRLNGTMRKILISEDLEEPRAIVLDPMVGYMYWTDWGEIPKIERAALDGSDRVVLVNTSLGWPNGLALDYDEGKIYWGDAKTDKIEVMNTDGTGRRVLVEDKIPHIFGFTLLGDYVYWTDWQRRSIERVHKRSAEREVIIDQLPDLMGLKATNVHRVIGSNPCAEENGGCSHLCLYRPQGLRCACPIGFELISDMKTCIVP

T2: LRP6E3E4 (UniProt O75581 631-1246)
T2 construct: domain: E3E4
T2 sequence (looked up): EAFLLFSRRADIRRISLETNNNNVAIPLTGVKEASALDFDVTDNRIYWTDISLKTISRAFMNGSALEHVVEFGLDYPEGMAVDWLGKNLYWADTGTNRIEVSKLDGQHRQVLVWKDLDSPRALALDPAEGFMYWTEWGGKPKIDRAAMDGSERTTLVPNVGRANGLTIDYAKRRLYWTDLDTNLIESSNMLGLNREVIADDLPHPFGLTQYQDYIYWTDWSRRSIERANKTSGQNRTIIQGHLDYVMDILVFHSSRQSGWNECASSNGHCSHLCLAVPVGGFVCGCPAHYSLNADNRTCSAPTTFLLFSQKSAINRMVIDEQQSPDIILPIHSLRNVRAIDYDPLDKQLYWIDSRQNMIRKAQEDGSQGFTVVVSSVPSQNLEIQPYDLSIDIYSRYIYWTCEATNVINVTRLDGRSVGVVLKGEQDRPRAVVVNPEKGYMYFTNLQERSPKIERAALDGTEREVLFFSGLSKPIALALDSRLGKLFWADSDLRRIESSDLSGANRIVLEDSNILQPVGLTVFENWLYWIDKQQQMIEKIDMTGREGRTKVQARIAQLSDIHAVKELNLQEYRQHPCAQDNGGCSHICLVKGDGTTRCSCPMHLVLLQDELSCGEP

T3: FZD8 CRD (UniProt Q9H461 30-151)
T3 construct: domain: CRD
T3 sequence (looked up): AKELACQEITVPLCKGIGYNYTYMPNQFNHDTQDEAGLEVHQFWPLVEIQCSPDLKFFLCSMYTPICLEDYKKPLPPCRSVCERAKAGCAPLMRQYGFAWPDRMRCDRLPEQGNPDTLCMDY


Experiments:
[1] = target: T1, LRP6E1E2; test: BLI (Octet), FIG. 12E
[2] = target: T2, LRP6E3E4; test: BLI (Octet), FIG. 12E
[3] = target: T2, LRP6E3E4; test: BLI (Octet), sequential: FZD8 CRD on sensor, tandem scFv, then LRP6 E3E4
[4] = target: T3, FZD8 CRD; test: as above

Binder	binding result [1]	binding result [2]	binding result [3]	binding result [4]
αGFP:5:L1:Fc (bispecific antibody, 0FZD:2LRP control) QVQLVESGGGLVQPGGSLRLSCAASGFTFSRYGMHWVRQAPGKGLEWVSGISSIGSNTYYADSVKGRFTISRDNSKNTLYLQMNSLRAEDTAVYYCARWYKTYIDVWGQGTLVTVSSGGGGSGGGGSGGGGSDIELTQPPSVSVAPGQTARISCSGDNLGKKYVYWYQQKPGQAPVLVIYGDDERPSGIPERFSGSNSGNTATLTISGTQAEDEADYYCASYDSSHILIVFGGGTKLTVLGSGSGDVKLVESGGGLVKLGGSLRLSCAASGFSFSTSYMSWVRQTPEKRLELVAAINLNGGSTYYSDTVKGRFTISRDNAKNTLYLQMSSLKSEDTAFYYCASELAGYGTPFAYWGQGTLVTVSAGSAASGSSGGSSSGADIVLTQSPATLSVTPGDSVSLSCKASQSISYNLHWYQQKSHESPRLLIKYTSQSISGIPSRFSGSGSGTDFTLTINNVETEDFGMYFCQQSNSWPLTFGAGTKLEVKGSGSGDKTHTCPPCPAPEAAGGPSVFLFPPKPKDTLMISRTPEVTCVVVDVSHEDPEVKFNWYVDGVEVHNAKTKPREEQYNSTYRVVSVLTVLHQDWLNGKEYKCKVSNKALGAPIEKTISKAKGQPREPQVYTLPPSREEMTKNQVSLTCLVKGFYPSDIAVEWESNGQPENNYKTTPPVLDSDGSFFLYSKLTVDKSRWQQGNVFSCSVMHEALHNHYTQKSLSLSPGK	binds			
αGFP:5:L2:Fc (bispecific antibody, 0FZD:2LRP control) QVQLVESGGGLVQPGGSLRLSCAASGFTFSRYGMHWVRQAPGKGLEWVSGISSIGSNTYYADSVKGRFTISRDNSKNTLYLQMNSLRAEDTAVYYCARWYKTYIDVWGQGTLVTVSSGGGGSGGGGSGGGGSDIELTQPPSVSVAPGQTARISCSGDNLGKKYVYWYQQKPGQAPVLVIYGDDERPSGIPERFSGSNSGNTATLTISGTQAEDEADYYCASYDSSHILIVFGGGTKLTVLGSGSGEVQLVESGGGLVQPGGSLRLSCAASGFTFTSYYISWVRQAPGKGLEWVAEISPYSGSTYYADSVKGRFTISADTSKNTAYLQMNSLRAEDTAVYYCALRARPPIRLHPRGSVMDYWGQGTLVTVSSGSAASGSSGGSSSGADIQMTQSPSSLSASVGDRVTITCRASQDVSTAVAWYQQKPGKAPKLLIYSASFLYSGVPSRFSGSGSGTDFTLTISSLQPEDFATYYCQQSYTTPPTFGQGTKVEIKGSGSGDKTHTCPPCPAPEAAGGPSVFLFPPKPKDTLMISRTPEVTCVVVDVSHEDPEVKFNWYVDGVEVHNAKTKPREEQYNSTYRVVSVLTVLHQDWLNGKEYKCKVSNKALGAPIEKTISKAKGQPREPQVYTLPPSREEMTKNQVSLTCLVKGFYPSDIAVEWESNGQPENNYKTTPPVLDSDGSFFLYSKLTVDKSRWQQGNVFSCSVMHEALHNHYTQKSLSLSPGK		binds		
L2:5:αGFP:Fc (bispecific antibody, 0FZD:2LRP control) EVQLVESGGGLVQPGGSLRLSCAASGFTFTSYYISWVRQAPGKGLEWVAEISPYSGSTYYADSVKGRFTISADTSKNTAYLQMNSLRAEDTAVYYCALRARPPIRLHPRGSVMDYWGQGTLVTVSSGSAASGSSGGSSSGADIQMTQSPSSLSASVGDRVTITCRASQDVSTAVAWYQQKPGKAPKLLIYSASFLYSGVPSRFSGSGSGTDFTLTISSLQPEDFATYYCQQSYTTPPTFGQGTKVEIKGSGSGQVQLVESGGGLVQPGGSLRLSCAASGFTFSRYGMHWVRQAPGKGLEWVSGISSIGSNTYYADSVKGRFTISRDNSKNTLYLQMNSLRAEDTAVYYCARWYKTYIDVWGQGTLVTVSSGGGGSGGGGSGGGGSDIELTQPPSVSVAPGQTARISCSGDNLGKKYVYWYQQKPGQAPVLVIYGDDERPSGIPERFSGSNSGNTATLTISGTQAEDEADYYCASYDSSHILIVFGGGTKLTVLGSGSGDKTHTCPPCPAPEAAGGPSVFLFPPKPKDTLMISRTPEVTCVVVDVSHEDPEVKFNWYVDGVEVHNAKTKPREEQYNSTYRVVSVLTVLHQDWLNGKEYKCKVSNKALGAPIEKTISKAKGQPREPQVYTLPPSREEMTKNQVSLTCLVKGFYPSDIAVEWESNGQPENNYKTTPPVLDSDGSFFLYSKLTVDKSRWQQGNVFSCSVMHEALHNHYTQKSLSLSPGK		binds		
L2:5:F3_His (bispecific antibody, 1:1 tandem scFv) EVQLVESGGGLVQPGGSLRLSCAASGFTFTSYYISWVRQAPGKGLEWVAEISPYSGSTYYADSVKGRFTISADTSKNTAYLQMNSLRAEDTAVYYCALRARPPIRLHPRGSVMDYWGQGTLVTVSSGSAASGSSGGSSSGADIQMTQSPSSLSASVGDRVTITCRASQDVSTAVAWYQQKPGKAPKLLIYSASFLYSGVPSRFSGSGSGTDFTLTISSLQPEDFATYYCQQSYTTPPTFGQGTKVEIKGSGSGEVQLVESGGGLVQPGGSLRLSCAASGFNISYSYIHWVRQAPGKGLEWVASIYSSSGSTSYADSVKGRFTISADTSKNTAYLQMNSLRAEDTAVYYCARGAIDYWGQGTLVTVSSGGGGSGGGGSGGGGSDIQMTQSPSSLSASVGDRVTITCRASQSVSSAVAWYQQKPGKAPKLLIYSASSLYSGVPSRFSGSRSGTDFTLTISSLQPEDFATYYCQQWYSSGHVLITFGQGTKVEIKGSGSGHHHHHH			binds	binds

The remaining lines, values ahead:

binding result [1]	binding result [2]	binding result [3]	binding result [4]	Binder
binds				L1:5:αGFP:Fc (bispecific antibody, 0FZD:2LRP control) DVKLVESGGGLVKLGGSLRLSCAASGFSFSTSYMSWVRQTPEKRLELVAAINLNGGSTYYSDTVKGRFTISRDNAKNTLYLQMSSLKSEDTAFYYCASELAGYGTPFAYWGQGTLVTVSAGSAASGSSGGSSSGADIVLTQSPATLSVTPGDSVSLSCKASQSISYNLHWYQQKSHESPRLLIKYTSQSISGIPSRFSGSGSGTDFTLTINNVETEDFGMYFCQQSNSWPLTFGAGTKLEVKGSGSGQVQLVESGGGLVQPGGSLRLSCAASGFTFSRYGMHWVRQAPGKGLEWVSGISSIGSNTYYADSVKGRFTISRDNSKNTLYLQMNSLRAEDTAVYYCARWYKTYIDVWGQGTLVTVSSGGGGSGGGGSGGGGSDIELTQPPSVSVAPGQTARISCSGDNLGKKYVYWYQQKPGQAPVLVIYGDDERPSGIPERFSGSNSGNTATLTISGTQAEDEADYYCASYDSSHILIVFGGGTKLTVLGSGSGDKTHTCPPCPAPEAAGGPSVFLFPPKPKDTLMISRTPEVTCVVVDVSHEDPEVKFNWYVDGVEVHNAKTKPREEQYNSTYRVVSVLTVLHQDWLNGKEYKCKVSNKALGAPIEKTISKAKGQPREPQVYTLPPSREEMTKNQVSLTCLVKGFYPSDIAVEWESNGQPENNYKTTPPVLDSDGSFFLYSKLTVDKSRWQQGNVFSCSVMHEALHNHYTQKSLSLSPGK
		binds	binds	F3:5:L2_His (bispecific antibody, 1:1 tandem scFv) EVQLVESGGGLVQPGGSLRLSCAASGFNISYSYIHWVRQAPGKGLEWVASIYSSSGSTSYADSVKGRFTISADTSKNTAYLQMNSLRAEDTAVYYCARGAIDYWGQGTLVTVSSGGGGSGGGGSGGGGSDIQMTQSPSSLSASVGDRVTITCRASQSVSSAVAWYQQKPGKAPKLLIYSASSLYSGVPSRFSGSRSGTDFTLTISSLQPEDFATYYCQQWYSSGHVLITFGQGTKVEIKGSGSGEVQLVESGGGLVQPGGSLRLSCAASGFTFTSYYISWVRQAPGKGLEWVAEISPYSGSTYYADSVKGRFTISADTSKNTAYLQMNSLRAEDTAVYYCALRARPPIRLHPRGSVMDYWGQGTLVTVSSGSAASGSSGGSSSGADIQMTQSPSSLSASVGDRVTITCRASQDVSTAVAWYQQKPGKAPKLLIYSASFLYSGVPSRFSGSGSGTDFTLTISSLQPEDFATYYCQQSYTTPPTFGQGTKVEIKGSGSGHHHHHH
